The chains are these.
B1: V107I/Y127E: CfEcR-DEF LBD double mutant, Valine (V) to Isoleucine (I) and Tyrosine (Y) to Glutamine (E) (protein, listed as Choristoneura fumiferana)
chain: LTANQQFLIARLIWYQDGYEQPSDEDLKRITQTWQQADDENEESDTPFRQITEMTILTVQLIVEFAKGLPGFAKISQPDQITLLKACSSEVMMLRVARRYDAASDSILFANNQAYTRDNYRKAGMAEVIEDLLHFCRCMYSMALDNIHYALLTAVVIFSDRPGLEQPQLVEEIQRYYLNTLRIYILNQLSGSARSSVIYGKILSILSELRTLGMQNSNMCISLKLKNRKLPPFLEEIWDV
B2: Y127E/R175E: CfEcR-DEF LBD double mutant, Y127E and R175E (protein, listed as Choristoneura fumiferana)
chain: B1 chain with I107V, R175E
B3: R175E: CfEcR-DEF LBD substitution mutant, Arginine (R) to Glutamine (E) (protein, listed as Choristoneura fumiferana)
chain: B1 chain with I107V, E127Y, R175E
B4: V96A/V107I/R175E: CfEcR-DEF LBD triple mutant, V96A, V107I and R175E (protein, listed as Choristoneura fumiferana)
chain: B1 chain with V96A, E127Y, R175E
B5: V107I: CfEcR-DEF LBD substitution mutant, Valine (V) to Isoleucine (protein, listed as Choristoneura fumiferana)
chain: B1 chain with E127Y
B6: T52V/V107I/R175E: CfEcR-DEF LBD triple mutant, T52V, V107I and R175E (protein, listed as Choristoneura fumiferana)
chain: B1 chain with T52V, E127Y, R175E
B7: V96T/V107I/R175E: CfEcR-DEF LBD triple mutant, V96T, V107I and R175E (protein, listed as Choristoneura fumiferana)
chain: B1 chain with V96T, E127Y, R175E
B8: T52A/V107I/R175E: CfEcR-DEF LBD triple mutant, T52A, V107I and R175E (protein, listed as Choristoneura fumiferana)
chain: B1 chain with T52A, E127Y, R175E
B9: V107I/R175E: CfEcR-DEF LBD double mutant, V107I and R175E (protein, listed as Choristoneura fumiferana)
chain: B1 chain with E127Y, R175E
B10: V107I/YL27E/R175E: CfEcR-DEF LBD triple mutant, V107I, Y127E and R175E (protein, listed as Choristoneura fumiferana)
chain: B1 chain with R175E
B11: T58A: CfEcR-DEF LBD substitution mutant, Threonine (T) to Alanine (A) (protein, listed as Choristoneura fumiferana)
chain: B1 chain with T58A, I107V, E127Y
B12: M92A: CfEcR-DEF LBD substitution mutant, Methionine (M) to Alanine (A) (protein, listed as Choristoneura fumiferana)
chain: B1 chain with M92A, I107V, E127Y
B13: V96T: CfEcR-DEF LBD substitution mutant, Valine (V) to Threonine (T) (protein, listed as Choristoneura fumiferana)
chain: B1 chain with V96T, I107V, E127Y
B14: V96A: CfEcR-DEF LBD substitution mutant, Valine (V) to Alanine (A) (protein, listed as Choristoneura fumiferana)
chain: B1 chain with V96A, I107V, E127Y
B15: T55A: CfEcR-DEF LBD substitution mutant, Threonine (T) to Alanine (A) (protein, listed as Choristoneura fumiferana)
chain: B1 chain with T55A, I107V, E127Y
B16: T52L: CfEcR-DEF LBD substitution mutant, Threonine (T) to Leucine (L) (protein, listed as Choristoneura fumiferana)
chain: B1 chain with T52L, I107V, E127Y
B17: V59A: CfEcR-DEF LBD substitution mutant, Valine (V) to Alanine (A) (protein, listed as Choristoneura fumiferana)
chain: B1 chain with V59A, I107V, E127Y
B18: V96D: CfEcR-DEF LBD substitution mutant, Valine (V) to Aspartic Acid (D) (protein, listed as Choristoneura fumiferana)
chain: B1 chain with V96D, I107V, E127Y
B19: T52I: CfEcR-DEF LBD substitution mutant, Threonine (T) to Isoleucine (I) (protein, listed as Choristoneura fumiferana)
chain: B1 chain with T52I, I107V, E127Y
B20: E20A: CfEcR-DEF LBD substitution mutant, Glutamic Acid (E) to Alanine (A) (protein, listed as Choristoneura fumiferana)
chain: B1 chain with E20A, I107V, E127Y
B21: T52A: CfEcR-DEF LBD substitution mutant, Threonine (T) to Alanine (A) (protein, listed as Choristoneura fumiferana)
chain: B1 chain with T52A, I107V, E127Y
B22: T52V: CfEcR-DEF LBD substitution mutant, Threonine (T) to Valine (V) (protein, listed as Choristoneura fumiferana)
chain: B1 chain with T52V, I107V, E127Y
B23: V96M: CfEcR-DEF LBD substitution mutant, Valine (V) to Methionine (M) (protein, listed as Choristoneura fumiferana)
chain: B1 chain with V96M, I107V, E127Y

This is an account of results in patent US8715959B2, “Substitution mutant receptors and their use in a nuclear receptor-based inducible gene expression system” (priority 2001, dated 2014).

Where a chain is given by its changes, count along the chain named. Names may count otherwise.

One assay has as its system CfEcR-DEF. In words: GAL4/mutant CfEcR-DEF + VP16/LmUSP-EF GAL4-driven luciferase reporter transactivation in NIH3T3 cells. In kind it is cell-based, Choristoneura fumiferana. Particulars: 10 nM GS™-E non-steroidal ligand; NIH3T3 cells; relative to Gal4/wild-type CfEcR-DEF switch activity. Here is the method:
DNAs corresponding to the various switch constructs outlined in Example 1, specifically switches 1.1-1.13, were transfected into mouse NIH3T3 cells (ATCC) or L57 cells (Dr. Peter Cherbas; Indiana University) as follows. Standard methods for culture and maintenance of the cells were followed. […] Superfect™ (Qiagen Inc.) was used for 3T3 cells and Lipofectamine™ (LifeTechnologies) was used for L57 cells as the transfection reagents. For 12-well plates, 4 μl of Superfect™ or Lipofectamine™ was mixed with 100 μl of growth medium. One μg of reporter construct and 0.25 μg of each receptor construct of the receptor pair to be analyzed were added to the transfection mix. […] The cells were harvested and reporter activity was assayed.
Cells were harvested 40 hours after adding ligands. […] Twenty μl of lysate were assayed.
Briefly, Applicants mutated amino acid residues predicted to be critical for ecdysteroid binding into alanine and created GAL4/mutantCfEcR-DEF cDNA gene expression cassettes as described in Example 1 above using the Quikchange PCR-mediated site-directed mutagenesis kit (Stratagene, La Jolla, Calif.). The mutated and the WT cDNAs were tested in GAL4-driven luciferase reporter assays.
DNAs corresponding to the various switch constructs outlined in Example 1, specifically switches 1.1-1.2, were transfected into mouse NIH3T3 cells (ATCC) as follows. […] Two μl of Superfect™ was mixed with 100 μl of growth medium and 50 ng of either GAL4/wild-type EcR or Gal4/mutant EcR cassette, 50 ng of VP16/LmUSP-EF and 200 ng of pFRLuc were added to the transfection mix. […] The cells were harvested and reporter activity was assayed as described above.
As to B1, the “Fold increase over WT, 10 nM GS™-E” value was 314.6 fold.

For B2, the “Fold increase over WT, 10 nM GS™-E” value is 622.8 fold.

In the case of B3, the “Fold increase over WT, 10 nM GS™-E” value is reported as 22.0 fold.

For the molecule B4, the “Fold increase over WT, 10 nM GS™-E” value amounted to 21.1 fold.

For B5, the “Fold increase over WT, 10 nM GS™-E” value worked out at 12.4 fold.

For B6, the “Fold increase over WT, 10 nM GS™-E” value is given as 62.8 fold.

For the molecule B7, the “Fold increase over WT, 10 nM GS™-E” value stood at 0.4 fold.

As to B8, the “Fold increase over WT, 10 nM GS™-E” value was 2.3 fold.

Consider B9, for which the “Fold increase over WT, 10 nM GS™-E” value was 386.4 fold.

Consider B10, for which the “Fold increase over WT, 10 nM GS™-E” value was 124.3 fold.

The same assay, now with this note: 10 nM PonA steroidal ligand; NIH3T3 cells; relative to Gal4/wild-type CfEcR-DEF switch activity.
B1: the “Fold increase over WT, 10 nM PonA” value was found to be 35.8 fold.

On to B2, for which the “Fold increase over WT, 10 nM PonA” value is given as 42.2 fold.

B3: the “Fold increase over WT, 10 nM PonA” value turned out to be 11.3 fold.

For the molecule B4, the “Fold increase over WT, 10 nM PonA” value is recorded as 1005.1 fold.

Take B5: the “Fold increase over WT, 10 nM PonA” value stood at 26.6 fold.

As to B6, the “Fold increase over WT, 10 nM PonA” value stood at 136.6 fold.

With B7, the “Fold increase over WT, 10 nM PonA” value was determined as 485.7 fold.

As for B8, the “Fold increase over WT, 10 nM PonA” value is reported as 20.3 fold.

As to B9, the “Fold increase over WT, 10 nM PonA” value worked out at 1194.4 fold.

In the case of B10, the “Fold increase over WT, 10 nM PonA” value worked out at 122.3 fold.

Staying with this assay, now noted: 2.5 μM GS™-E non-steroidal ligand; NIH3T3 cells; relative to Gal4/wild-type CfEcR-DEF switch activity.
As for B11, the “Fold increase over WT, 2.5 μM GS™-E” value is 0.8 fold.

For B12, the “Fold increase over WT, 2.5 μM GS™-E” value came to 0.7 fold.

Turning to B13, the “Fold increase over WT, 2.5 μM GS™-E” value amounted to 0.018 fold.

On to B14, for which the “Fold increase over WT, 2.5 μM GS™-E” value amounted to 0.35 fold.

Take B15: the “Fold increase over WT, 2.5 μM GS™-E” value was 1.7 fold.

On to B16, for which the “Fold increase over WT, 2.5 μM GS™-E” value is on record as 0.26 fold.

Regarding B17, the “Fold increase over WT, 2.5 μM GS™-E” value was determined as 0.47 fold.

Turning to B18, the “Fold increase over WT, 2.5 μM GS™-E” value worked out at 3.07 fold.

Consider B19, for which the “Fold increase over WT, 2.5 μM GS™-E” value is given as 8 fold.

B20: the “Fold increase over WT, 2.5 μM GS™-E” value stood at 0.9 fold.

As for B21, the “Fold increase over WT, 2.5 μM GS™-E” value came to 1.5 fold.

For the molecule B22, the “Fold increase over WT, 2.5 μM GS™-E” value came to 17.3 fold.

As to B23, the “Fold increase over WT, 2.5 μM GS™-E” value came out at 122 fold.

The same assay, now with this note: 2.5 μM PonA steroidal ligand; NIH3T3 cells; relative to Gal4/wild-type CfEcR-DEF switch activity.
Consider B11, for which the “Fold increase over WT, 2.5 μM PonA” value is 0.008 fold.

Consider B12, for which the “Fold increase over WT, 2.5 μM PonA” value came to 0.39 fold.

In the case of B13, the “Fold increase over WT, 2.5 μM PonA” value is 45 fold.

Turning to B14, the “Fold increase over WT, 2.5 μM PonA” value was determined as 408 fold.

For B15, the “Fold increase over WT, 2.5 μM PonA” value came out at 0.13 fold.

Turning to B16, the “Fold increase over WT, 2.5 μM PonA” value stood at 3.4 fold.

Consider B17, for which the “Fold increase over WT, 2.5 μM PonA” value stood at 0.002 fold.

For B18, the “Fold increase over WT, 2.5 μM PonA” value amounted to 3.1 fold.

For the molecule B19, the “Fold increase over WT, 2.5 μM PonA” value amounted to 8 fold.

As to B20, the “Fold increase over WT, 2.5 μM PonA” value came to 0.35 fold.

On to B21, for which the “Fold increase over WT, 2.5 μM PonA” value is listed as 0.5 fold.

On to B22, for which the “Fold increase over WT, 2.5 μM PonA” value was determined as 35.7 fold.

As to B23, the “Fold increase over WT, 2.5 μM PonA” value is listed as 3.37 fold.

Staying with this assay, now noted: GS™-E; CfEcR-DEF point mutants.
B11: the “non-steroid activity (summary of Table 10)” value was “not significantly affected”.

The same assay, now with this note: PonA; CfEcR-DEF point mutants.
As to B11, the “steroid binding activity (summary of Table 10)” value is reported as “essentially eliminated”.
